Measurements published in PMC9784774 (2022).

Target: T1, recombinant gH/gL/UL128/UL130/UL131A pentamer (wild type) (human cytomegalovirus | human …)
T1 chain 1: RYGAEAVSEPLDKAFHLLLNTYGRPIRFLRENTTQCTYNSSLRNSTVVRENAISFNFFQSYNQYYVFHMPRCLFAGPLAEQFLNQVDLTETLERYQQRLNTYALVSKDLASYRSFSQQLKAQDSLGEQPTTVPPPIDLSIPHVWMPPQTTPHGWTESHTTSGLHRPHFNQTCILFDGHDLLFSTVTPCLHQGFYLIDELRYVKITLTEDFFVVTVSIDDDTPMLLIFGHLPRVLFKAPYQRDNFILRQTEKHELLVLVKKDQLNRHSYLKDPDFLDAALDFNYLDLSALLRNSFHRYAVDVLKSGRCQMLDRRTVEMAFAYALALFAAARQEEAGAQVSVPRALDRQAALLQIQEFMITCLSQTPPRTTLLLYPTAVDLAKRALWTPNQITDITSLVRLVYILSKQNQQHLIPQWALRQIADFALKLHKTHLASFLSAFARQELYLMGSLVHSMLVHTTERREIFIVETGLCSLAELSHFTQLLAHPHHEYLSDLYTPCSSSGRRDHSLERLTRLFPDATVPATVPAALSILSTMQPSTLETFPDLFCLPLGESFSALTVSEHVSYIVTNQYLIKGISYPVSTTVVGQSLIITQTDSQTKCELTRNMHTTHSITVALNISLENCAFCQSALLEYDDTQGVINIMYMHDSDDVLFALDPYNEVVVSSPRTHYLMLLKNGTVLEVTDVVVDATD
T1 chain 2: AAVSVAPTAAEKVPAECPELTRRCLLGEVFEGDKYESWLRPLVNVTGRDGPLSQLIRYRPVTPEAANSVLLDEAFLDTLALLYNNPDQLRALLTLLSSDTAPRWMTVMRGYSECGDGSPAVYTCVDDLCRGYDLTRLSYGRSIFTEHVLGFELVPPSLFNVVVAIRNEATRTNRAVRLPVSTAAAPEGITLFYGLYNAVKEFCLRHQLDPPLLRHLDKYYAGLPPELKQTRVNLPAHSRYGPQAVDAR
T1 chain 3: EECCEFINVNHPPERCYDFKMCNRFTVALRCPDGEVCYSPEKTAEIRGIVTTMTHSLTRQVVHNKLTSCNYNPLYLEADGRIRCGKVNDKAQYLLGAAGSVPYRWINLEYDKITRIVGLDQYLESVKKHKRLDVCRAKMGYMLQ
T1 chain 4: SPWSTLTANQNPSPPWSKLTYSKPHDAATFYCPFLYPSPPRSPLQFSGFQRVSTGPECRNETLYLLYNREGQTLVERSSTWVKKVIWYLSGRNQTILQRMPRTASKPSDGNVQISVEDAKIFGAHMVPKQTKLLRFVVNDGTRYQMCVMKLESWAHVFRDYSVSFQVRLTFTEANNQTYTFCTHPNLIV
T1 chain 5: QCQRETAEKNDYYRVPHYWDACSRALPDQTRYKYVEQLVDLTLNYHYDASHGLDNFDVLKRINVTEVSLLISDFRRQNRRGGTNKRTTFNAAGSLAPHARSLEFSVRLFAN
Experiment: SPR

B1: MAb 9I6 (antibody, V domains shown)
VH: EVQLVQSGAEVKKPGESLKISCRESGDTFPAYWIAWVRQMPGKGLEWMGIIYPIDSETTYSPSFQGQVTISADKSINTAYLQWSSLKASDSAIYYCARGTSTGLREAFHIWGQGTMVTVSS
VL: DVVMTQSPLSLAVTLGQPAYISCRSSQSLGYSDGNTYLNWFQQRPGQSPRRLIYEVSNRDSGVPDRFSGSGSGTDFTLKISRVEAEDVGTYYCMQGTHWPPMCSFGQGTKLEIK
Work on B1 yielded a koff of 0.000151 s⁻¹.
